Where “and” joins values, the source holds several entries; their conditions need not be identical. Equal entries are not always repeated. One block for each substance: values may come before it.
Assays:
[1] = target: HmTSPcc, 25aa synthetic peptide corresponding to HmTSP residues 249-273 (Hydra magnipapillata); assay: AUC; sedimentation equilibrium; HmTSPcc 400 uM in PBS, 20 °C, 30,000-46,000 rpm; fitted to a single, ideal species model
[2] = target: NoHmTSP.V5, truncated HmTSP comprising the N-terminal domain plus the putative oligomerization region (aa 1-296) (Hydra magnipapillata); assay: non-reducing SDS-PAGE and immunoblot; V5-tagged proteins from conditioned media of transfected COS7 cells, collected on Talon resin, boiled in SDS sample buffer without DTT; 7% SDS-polyacrylamide gels; V5 antibody blot
[3] = target: full-length HmTSP-His (Hydra magnipapillata thrombospondin) (Hydra magnipapillata); assay: non-reducing SDS-PAGE and immunoblot; HmTSP-His from lysates of transfected HEK293T cells, collected on Ni-NTA, eluted in non-reducing SDS sample buffer; 4-20% gradient gels; anti-penta-His blot; laminin chains and prestained markers as size references

stoichiometry N (x monomer mass) [1]: 2.98
Substance: HmTSPcc, 25aa synthetic peptide corresponding to HmTSP residues 249-273

stoichiometry N [2]: 5 and 4
Substance: NoHmTSP.V5, truncated HmTSP comprising the N-terminal domain plus the putative oligomerization region (aa 1-296) (domain or fragment)

stoichiometry N [3]: > 4
Substance: full-length HmTSP-His (Hydra magnipapillata thrombospondin) (natural protein)

— PMC6079037
